Assay: soluble on expression in E. coli; label from the status in PepcDB or PDB records

Sequence	soluble on expression in E. coli
MGSDKIHHHHHHMTIDTSFNFKSDTPAEKDPDTWSPTLAAYHKLLWSKSLPNGRVFTLEYEKPPFYLRHRSDVGEFCLSSDTVVPSFRKKTIDGVAKDEMNFGGLGYTIGGMMVFPAIPIERKWTINQARGCNRKISDRFDLTVECIRRYYSDAQSPLDDVLRRYVDFFTLFRDFAGYVEFFHLQDVVNSDFTAVKFFLPFEDFEATSPIPQSRDAYLQYRSAAIDFLNARNQRIQNWVAKNIKG	not soluble
MGSDKIHHHHHHMTIETIKRIIEEENVRFIRLQFTDINGTLKNLEITPDVFLESWEDGIMFDGSSIEGFVRIEESDMYLKPVLDTFAVLPWTVDGAKSARVICDVYTPDGKPFEGDPRYRLRRMMEKAEQLGYTPYAGPEMEFFILPINEKGEPVPEFLDHGGYFDLLPLSKVEEIRRDIAIALEKMGITVEATHHEVAPSQHEVDFRYDTFLRTADNAQTVKLVIKTMAIFHGYHATFMPKPFYGVNGSGMHVHMSLFRGDKNAFYDPDDPLGLSKELRYFVGGILKHAKALAAVTNPTINSYKRLVPGYEAPVYISWSVGNRSALIRIPKARGKATRLEYRSPDPSCNIYLAFAAILAAGLDGIINKIEPPAPVEENIYHMTSERREELNIESLPGSLKEAVEELKKDDVIIDALGEHIFEKFVEAAEKDWKEFSTYVTNWELQRYLYL	not soluble
MGSDKIHHHHHHMTISYEKFHLKEVINASGKMTILGVSKVSEAVLAAQRFGGEHFFEMSELSVQTGAFLANLLKVEDAQIVSSASAGIAQSVAALIGKGSLYHAYHPYTEKIEQREIVLPKGHNVDYGTPVEVMVAQGGGQVVEAGYANMCSPEHVEMMISEKTAAILYIKSHHTVQKSMLTVAEAAKVAQRHKVPLIVDAAAEEDLFKYTEAGADLVIYSGAKAIEGPSAGLVVGKKEYIDWVRLQGKGIGRAMKIGKDNILGFTQAVEEYLAHGSESGASMQERLKPFVEAINNLSDLTAKIVQDGAGRDIYRASVKVDGRKTAKEVIQALKAESPAIYTREYQANNGIIEFDIRSVNQEEMNKIVQRLQEIMDKKEK	not soluble
MGSDKIHHHHHHMTKAKYQQIEEILRRQITNGHYQEGDLIPKEFDLAEKYQVSRPTIRHAVQDLVNQGYLERRKHVGTIVKQTKIGQEFTHVLQSYNSEMSQKGLIAQTQVLFFKKEKASAEVAKALDLTENAPVYKLTRLRSADGNPIVLVTTYLPASKLSDFEKIDFTQQSLYQELEKRSLPIVHVKRKLEVKSADEMTANLLNIEEKVPIFYFHTYGYTKGEVPLEYSIAMYRGDENYFVIDLKR	not soluble
MGSDKIHHHHHHMTLDLKQEKGREIFFRLAEKADVIIENFVPGVVKKLGVDYEAVKKVKPDIIYCHVSGFGQDGPYRDRPAFDQLIQGEAGIISYTGTRETPCKINVPITDLLASMYGAYAVLAALLRREKTGEGMEIDISLFDCAVTMMLNLMNMAIVEGMKDEELRMGTKYFLATPYEPYPAGDGKLVNVVVATEWHWKEFCKAVGLEELLDDPRFATNQQRLKHREQLERIIIEKFREKPRDDWIEILLKAGVPCGAVNTIQEVIEHPQTKHRKTVVEVDYPELGKIKLFNNPVKFSGFEVEVRRPPKLGEHTEEILKSIGLSEEEIADLRA	not soluble
MGSDKIHHHHHHMTLKKLRANDRMKQIMAGYYMMGNQAEVKGWITSGAPVELLYAMDIYPVYPENHGALIGAAKQGPYFSDFAERKGFSRDLCSYARCDIGCVFAGTSPIGGLPEPTFLFACNNICNTVVKWYEVLSRIFKVPLFVLDTPFVRKELKESYVKYVHDQLYEFVDFLEKTTGRELSDSKLRDTVIKSIQGVKAYAEVLGMARHKPSPLTCFDAFINMAPIVCLRGTDYPVQFYAEMKEELEERVKRGEGAIENEEIRLLWDNIPVWYRLKWFSEFFAERNACLVADTYTNAWTGFISIDKSDIFWSMAETYTFIYLNIGLEHMAEAINRLIDYYDVDGAVIHSNRSCKPYSFGQYELQKMIEVPSVIIEADMVDSRTFSEAQVETRLEAFLEMLR	not soluble
MGSDKIHHHHHHMTLRARIQTAVSLVYPARCLNCGGLVESDFGLCGACWRDTTFISGLVCEGCGAPLPGEDDGQMVHCDACLRAPGEWDRGRAALVYTGQGRRLVLALKHGDRTDLVRPASAWMARAARVLLSPKPLLVPVPLHWTRLLHRRYNQSALLAQAIAAREECDCCPDALIRVAKTPMLEGYSRSERRALLSDAIRPNPRMASRLKGRRVLLVDDVMTSGSTLSACARACMDAGAKSTNVAVLARVTGS	not soluble
MGSDKIHHHHHHMTLSEYLQQLTQFKTIEELWRAHVQQMSRYGFDRLLYGYTLFKTRTSLGDPDDFVILTNHCPEYLQGFLADGLYAHAPMLTWALENEGHASWRVSQEMAAQGLLDKQARKVQDFNQSMGVHAGYTISFNSASERFKGAISLAARADLDQDGIDQIWAEHGADIVLMNNVAHLKILTLPYHAPKRGLTKRQREVLQWVGDGKTTQDIALLMGLTPATIEKHLRLARATLSVETTAQAVLKAALHNQMYAVEH	not soluble
MGSDKIHHHHHHMTLTANNKKRAVLRVRPGQFVVTPAIEQVAIRALRYLTSGFAIHLRGPAGTGKTTLAMHLANCLDRPIMLIFGDDEFKSSDLIGSESGYTHKKLLDNYIHSVLKVEDEFKQNWVDSRLTLACREGFTLVYDEFNRSRPEVNNVLLSALEEKILTLPPSSNQPEYLHVNPQFRAIFTSNPEEYCGVHSTQDALMDRLVTINMPEPDELTQTEILAQKTALNRADALLVVQLVKAFRSRTGGEKTSGLRSCLMIAKVCAEHNILVAPESSDFREICADVLFNRTNWSASEATTIFLELLNHLNLEEIEEFKNSITSEDTDAIADEDHNAINESGFPTIIDSQFGTLDSEVLEQPGVEDSIPFEREIYLYLQQYKSAALALLQQEFELSRTVATNALNSLEQKGLVSKNNHVYTIEEPNQP	not soluble
MGSDKIHHHHHHMTMLSTPQPTLADLAIEPGLPTVVSPRAGAAISLEEAAPLLRAIVDDTLERAGGVLFTGFHVASIDAFQSFAGSFGHPLIGYEFASTPRSQVEGAVYTSTEYPPHRSIPLHNEQSYTREWPLRIWFHCALAARSGGATPIADSRAIYRALDPALVDRFAKRELLYVRNFGQGLDLPWEQAFGSADPRTVERICRARGIECEWRDSEDGELLLRTRERCQAVARHPRTGEHVWFNQANLFHLSSLDEDMQEALIDSVGLENVPRNVYYGDGEPLEADALAEIRGVLDQQRIVFPWLTGDVLMLDNMLSAHARDPFEGPRKVVVAMARSYSEAEGEKRTAAP	not soluble
MGSDKIHHHHHHMTNAAKTGVERTYEYKERINGILGMMEQAPAEQRNPVLEGLLRLIMETNERTIDCAENGKPFVSTWYGNAPEILTAMDIHFIVPVFDILLHEYFTDLYDVKEADKISLPDDICSLIRFGAYAIENKLLPRPTAIISMLEPCDAELMLHQYYQSSEHWGGVPTFGLDPAYGSTDEDFMYFAGELKRLIHFLVEITGQKYDVDKLRKVVAETNTQYELWAEYNELRRVTPCPHGSFQGSVPLWTLTQFISSGDPRATELIRMMIMDAEAKVKAGIGAVPNEQIRILWADLAPQWGDLLAPWLAEEWGANVVMDYQGYSPYTHIDTTSEDTMLYGLARRALHEVPMIRQGRGTVEVMIEDMTRIIKDYTINCVFWPGHMGHKDVSGSVHFMQELCRSLNVPLLCLTTSLFDERYTPLDKVKQQMSEFFEATGWSKNSST	not soluble
MGSDKIHHHHHHMTNWLPDPSALASPLHSSLALAIAKAISEGKLPKGTQLPTHRKLAEELGLSVHTVSKAYESLRRQRLIDGQVGRGSYVLDLNTPDDQPFQLSSERGRNFDLSISRPAFSQRHAELFQQVLADLPQGLDPSYYLACRPNVGHDAHRAAGETWLRICGLDVPSERIIMTNGVSHGMSAALSALARPGDTVVSSRITHHLLVSGCSYLGLNLVGIDFDQDGMLPDALDRHCSENNAKVLFLLPSLANTTVEMIPEERRQALVQVARKHNLYIIENDAFGPVAEDRPVPVAALAPERTIYLTTFTKCTVSGLRAGYMAAPEHLLPALTGRIVVFGWMATPLMCEIATRWVLDGTALELALWQRRALAERYEIASQALQGHQWRGHPSALHLWLPLESGWTTSSFVAYARQLKVAVAPDAPFLTPKTPPPNAVRISLGSVQDLSRFKQAMELVGGMLSRPPEGVAPLAF	not soluble
MGSDKIHHHHHHMTPSEYQNPILCADYSDPDIVRVGDDFFMVSSSFNHVPALPILHSTDLVNWTIINHVMDELPLPGYDRYQPGKGVWAPSIRWHDGKLWVCFSTPDEGIFICHTEDPWGKWSAPHCLREARGWIDPCPFWDDNGQAWLVHAFAHSRSGIKHKLQLFAMAPDASELLGEGQIIYDGCCDLPTLEGPKVYQRAGWYYIFAPAGGVENGWQTVLRARQMTGPWEAKNVLFQGNTSINGPHQGGWVEGEEGECWFVHFQDLHLYGRVVHLQPMSWGNDGWPRIGEQIGNCGVGQPVLRWPRPKGLTPSPALAPQTSDYFAQGQPGIQWQWQANPSPEWLLPAEGELRLRCVPLSEVDGQRALYWAPQLLLQKFPALTFSAKTSVTLYAAQDGDAGGLIVYGERYAALLVEFGQGGYRLVWRHGWMSDAGVVRETRQVLAELKCGKCQLQVAVGEGGLCQFSWRAEEEWRKVPLCFAAGKGKWVGAKFGLLAASMVGLQSEGYSALQDFEVIL	not soluble
MGSDKIHHHHHHMTQEMILANATLILAGETRTGCVKISDSVIADIADGSSVPAGAVDLEGDFLSPGLVELHTDNLERHIEPRPGVDWPHAAALVAHDAELASTGITTVFDAMRVGSIPSGKGRYIKYARQLASEMLDLRTKDMLKISHFLHLRAEVCSETLAEELAEFTAEDRVGLVSLMDHTPGQRQFRDIAKLEQYVKSKRGMSDEEFINHVAQLKDLRARFGDLHEATTVAEAARFGAVLASHDDTTADQVQTSAGHGIRLAEFPTTVEAARACHAHGIKVMMGAPNLIRGGSHSGNVAARELADLELLDIVSSDYIPAALLQAAVKLGEIWGDLARGMATVTAAPAASVGLTDRGVLEVGKRADLIRFRTREGVPMLRAVYSRGARVA	not soluble
MGSDKIHHHHHHMTQEQTRPKHMAAGETPEQHAAFEARIARGEKIEPGDWMPAEYRRQLIRMISQHAHSEVVGMLPEGEWIARAPSLKRKTILMAKVQDEAGHGQYLYHAAETLGVTREEMLDALLTRKAKYSSIFNYPTLTWADVGMIGWLVDGAAIKNQTMLAGCSYGPYSRAMVRICSEETFHHKQGKEMMVLYAQGTPEQRQMAQDALNRWWWPAVQMLGPHDSDSPNTGALSKWGIKLKTNDEVRQEFINEHVPELLEAGLTIPDPDLHQDEAGNWVHGPIDWSEFWAVIKGEQGLGNERLATRQAAQDEGAWVREALEAYMARQAKGEAAD	not soluble
MGSDKIHHHHHHMTQHVIEMREITKKFGDFVANDHINLNVRKGEIHALLGENGAGKSTLMNMLAGLLEPTSGEIVINDKPVQIDSPSKSAKLGIGMVHQHFMLVEAFTVAENIILGNEVVKNGCLDLNQASKDIKVLSEKYGLAINPSAKVSDISVGAQQRVEILKTLYRGADILIFDEPTAVLTPAEIKELMTIMKNLVKEGKSIILITHKLDEIRAVADRVTVIRRGKSIETVDVAGATSQDLAEMMVGRSVSFTTSKKAAEPKDVVLSIKNLEVDENRGVPAVKGLSLDVRAGEIVGIAGIDGNGQSELIQAITGLRKVKSGSIMIKNNEVTHLSSRKITELSVGHVPEDRHRDGLILDLSLAENTALQTYYKQPLSQNGILNYTKINDYARQLMKEFDVRGANELVPARGFSGGNQQKAIIAREVDRDPDLLIVSQPTRGLDVGAIEYIHKRLIKERDKGKAVLVVSFELDEILNLSDRIAVIHDGKIQGIVSPENTNKQELGILMAGGSIHKEEGHV	not soluble
